Sequences and labels used below:
B1: IgG1 full-length heavy chain with T366W/L368A/Y407V (SEQ ID NO: 26) with light chain SEQ ID NO: 61 (antibody)
heavy: QVQLQESGPGLVRPSQTLSLTCTVSGYSITSDHAWSWVRQPPGRGLEWIGYISYSGITTYNPSLKSRVTMLRDTSKNQFSLRLSSVTAADTAVYYCARSLARTTAMDYWGQGSLVTVSSASTKGPSVFPLAPSSKSTSGGTAALGCLVKDYFPEPVTVSWNSGALTSGVHTFPAVLQSSGLYSLSSVVTVPSSSLGTQTYICNVNHKPSNTKVDKRVEPKSCDKTHTCPPCPAPELLGGPSVFLFPPKPKDTLMISRTPEVTCVVVDVSHEDPEVKFNWYVDGVEVHNAKTKPREEQYNSTYRVVSVLTVLHQDWLNGKEYKCKVSNKALPAPIEKTISKAKGQPREPQVYTLPPSREEMTKNQVSLWCAVKGFYPSDIAVEWESNGQPENNYKTTPPVLDSDGSFFLVSKLTVDKSRWQQGNVFSCSVMHEALHNHYTQKSLSLSP
light: not shown
B2: IgG4 full-length heavy chain with T366W/L368A/Y407V (SEQ ID NO: 94) with light chain SEQ ID NO: 61 (antibody)
heavy: QVQLQESGPGLVRPSQTLSLTCTVSGYSITSDHAWSWVRQPPGRGLEWIGYISYSGITTYNPSLKSRVTMLRDTSKNQFSLRLSSVTAADTAVYYCARSLARTTAMDYWGQGSLVTVSSASTKGPSVFPLAPCSRSTSESTAALGCLVKDYFPEPVTVSWNSGALTSGVHTFPAVLQSSGLYSLSSVVTVPSSSLGTKTYTCNVDHKPSNTKVDKRVESKYGPPCPPCPAPEFLGGPSVFLFPPKPKDTLMISRTPEVTCVVVDVSQEDPEVQFNWYVDGVEVHNAKTKPREEQFNSTYRVVSVLTVLHQDWLNGKEYKCKVSNKGLPSSIEKTISKAKGQPREPQVYTLPPSQEEMTKNQVSLWCAVKGFYPSDIAVEWESNGQPENNYKTTPPVLDSDGSFFLVSRLTVDKSRWQEGNVFSCSVMHEALHNHYTQKSLSLSL
light: not shown
B3: IgG4 full-length heavy chain with T394W/F405A (SEQ ID NO: 93) with light chain SEQ ID NO: 61 (antibody)
heavy: QVQLQESGPGLVRPSQTLSLTCTVSGYSITSDHAWSWVRQPPGRGLEWIGYISYSGITTYNPSLKSRVTMLRDTSKNQFSLRLSSVTAADTAVYYCARSLARTTAMDYWGQGSLVTVSSASTKGPSVFPLAPCSRSTSESTAALGCLVKDYFPEPVTVSWNSGALTSGVHTFPAVLQSSGLYSLSSVVTVPSSSLGTKTYTCNVDHKPSNTKVDKRVESKYGPPCPPCPAPEFLGGPSVFLFPPKPKDTLMISRTPEVTCVVVDVSQEDPEVQFNWYVDGVEVHNAKTKPREEQFNSTYRVVSVLTVLHQDWLNGKEYKCKVSNKGLPSSIEKTISKAKGQPREPQVYTLPPSQEEMTKNQVSLTCLVKGFYPSDIAVEWESNGQPENNYKTWPPVLDSDGSFALYSRLTVDKSRWQEGNVFSCSVMHEALHNHYTQKSLSLSL
light: not shown
B4: IgG2 full-length heavy chain with K392D/D399K/K409D (SEQ ID NO: 91) with light chain SEQ ID NO: 61 (antibody)
heavy: QVQLQESGPGLVRPSQTLSLTCTVSGYSITSDHAWSWVRQPPGRGLEWIGYISYSGITTYNPSLKSRVTMLRDTSKNQFSLRLSSVTAADTAVYYCARSLARTTAMDYWGQGSLVTVSSASTKGPSVFPLAPCSRSTSESTAALGCLVKDYFPEPVTVSWNSGALTSGVHTFPAVLQSSGLYSLSSVVTVPSSNFGTQTYTCNVDHKPSNTKVDKTVERKCCVECPPCPAPPVAGPSVFLFPPKPKDTLMISRTPEVTCVVVDVSHEDPEVQFNWYVDGVEVHNAKTKPREEQFNSTFRVVSVLTVVHQDWLNGKEYKCKVSNKGLPAPIEKTISKTKGQPREPQVYTLPPSREEMTKNQVSLTCLVKGFYPSDIAVEWESNGQPENNYDTTPPMLKSDGSFFLYSDLTVDKSRWQQGNVFSCSVMHEALHNHYTQKSLSLSP
light: not shown
notes: also called Sample No. 212 full-length heavy chain
B5: IgG2 full-length heavy chain with Q347R/K360E/D399V/F405T/K409W (SEQ ID NO: 89) with light chain SEQ ID NO: 61 (antibody)
heavy: QVQLQESGPGLVRPSQTLSLTCTVSGYSITSDHAWSWVRQPPGRGLEWIGYISYSGITTYNPSLKSRVTMLRDTSKNQFSLRLSSVTAADTAVYYCARSLARTTAMDYWGQGSLVTVSSASTKGPSVFPLAPCSRSTSESTAALGCLVKDYFPEPVTVSWNSGALTSGVHTFPAVLQSSGLYSLSSVVTVPSSNFGTQTYTCNVDHKPSNTKVDKTVERKCCVECPPCPAPPVAGPSVFLFPPKPKDTLMISRTPEVTCVVVDVSHEDPEVQFNWYVDGVEVHNAKTKPREEQFNSTFRVVSVLTVVHQDWLNGKEYKCKVSNKGLPAPIEKTISKTKGQPREPRVYTLPPSREEMTENQVSLTCLVKGFYPSDIAVEWESNGQPENNYKTTPPMLVSDGSFTLYSWLTVDKSRWQQGNVFSCSVMHEALHNHYTQKSLSLSP
light: not shown
notes: also called Sample No. 210 full-length heavy chain
B6: IgG2 full-length heavy chain with T366W/L368A/Y407V (SEQ ID NO: 88) with light chain SEQ ID NO: 61 (antibody)
heavy: QVQLQESGPGLVRPSQTLSLTCTVSGYSITSDHAWSWVRQPPGRGLEWIGYISYSGITTYNPSLKSRVTMLRDTSKNQFSLRLSSVTAADTAVYYCARSLARTTAMDYWGQGSLVTVSSASTKGPSVFPLAPCSRSTSESTAALGCLVKDYFPEPVTVSWNSGALTSGVHTFPAVLQSSGLYSLSSVVTVPSSNFGTQTYTCNVDHKPSNTKVDKTVERKCCVECPPCPAPPVAGPSVFLFPPKPKDTLMISRTPEVTCVVVDVSHEDPEVQFNWYVDGVEVHNAKTKPREEQFNSTFRVVSVLTVVHQDWLNGKEYKCKVSNKGLPAPIEKTISKTKGQPREPQVYTLPPSREEMTKNQVSLWCAVKGFYPSDIAVEWESNGQPENNYKTTPPMLDSDGSFFLVSKLTVDKSRWQQGNVFSCSVMHEALHNHYTQKSLSLSP
light: not shown
B7: IgG2 full-length heavy chain with T394W/F405A (SEQ ID NO: 87) with light chain SEQ ID NO: 61 (antibody)
heavy: QVQLQESGPGLVRPSQTLSLTCTVSGYSITSDHAWSWVRQPPGRGLEWIGYISYSGITTYNPSLKSRVTMLRDTSKNQFSLRLSSVTAADTAVYYCARSLARTTAMDYWGQGSLVTVSSASTKGPSVFPLAPCSRSTSESTAALGCLVKDYFPEPVTVSWNSGALTSGVHTFPAVLQSSGLYSLSSVVTVPSSNFGTQTYTCNVDHKPSNTKVDKTVERKCCVECPPCPAPPVAGPSVFLFPPKPKDTLMISRTPEVTCVVVDVSHEDPEVQFNWYVDGVEVHNAKTKPREEQFNSTFRVVSVLTVVHQDWLNGKEYKCKVSNKGLPAPIEKTISKTKGQPREPQVYTLPPSREEMTKNQVSLTCLVKGFYPSDIAVEWESNGQPENNYKTWPPMLDSDGSFALYSKLTVDKSRWQQGNVFSCSVMHEALHNHYTQKSLSLSP
light: not shown
notes: also called Sample No. 208 full-length heavy chain
B8: IgG2 full-length heavy chain with K392L/T394W/F405A/Y407V (SEQ ID NO: 90) with light chain SEQ ID NO: 61 (antibody)
heavy: QVQLQESGPGLVRPSQTLSLTCTVSGYSITSDHAWSWVRQPPGRGLEWIGYISYSGITTYNPSLKSRVTMLRDTSKNQFSLRLSSVTAADTAVYYCARSLARTTAMDYWGQGSLVTVSSASTKGPSVFPLAPCSRSTSESTAALGCLVKDYFPEPVTVSWNSGALTSGVHTFPAVLQSSGLYSLSSVVTVPSSNFGTQTYTCNVDHKPSNTKVDKTVERKCCVECPPCPAPPVAGPSVFLFPPKPKDTLMISRTPEVTCVVVDVSHEDPEVQFNWYVDGVEVHNAKTKPREEQFNSTFRVVSVLTVVHQDWLNGKEYKCKVSNKGLPAPIEKTISKTKGQPREPQVYTLPPSREEMTKNQVSLTCLVKGFYPSDIAVEWESNGQPENNYLTWPPMLDSDGSFALVSKLTVDKSRWQQGNVFSCSVMHEALHNHYTQKSLSLSP
light: not shown

This data set deals with the molecule itself. As to the kind of experiment: SEC peak area ratio after coexpression of full-length heavy chain, light chain and Fc fragment.
In the case of B1, the “Homo full-length heavy chain (%)” value stood at 73.8%.
For the protein B2, the “Homo full-length heavy chain (%)” value stood at 83%.
Turning to B3, the “Homo full-length heavy chain (%)” value stood at 82%.
As to B4, the “Homo full-length heavy chain (%)” value turned out to be 79.6%.
The result for B5 reads 80.4%.
B6: the “Homo full-length heavy chain (%)” value was determined as 80%.
The figure for B7 is 80.8%; for B8 it is 78.5%.

The values are drawn from patent publication US20260217835A1 (published 2026).
